This passage reports peptide exchange yield results from patent US20160250307A1 (IMMATICS BIOTECHNOLOGIES, published 2016).

In experiment [1] the target is HLA-A*02 (human). The experiment is described as follows: UV-ligand exchange, anti-b2m ELISA; grade: exchange yield >=75%.
Experiment [2] has as its target HLA-A*02 (human). Briefly: UV-ligand exchange, anti-b2m ELISA; grade: exchange yield >=20%. (In general: ELISA stands for enzyme-linked immunosorbent assay.)
Experiment [3] addresses HLA-A*02 (human). The experiment is described as follows: UV-ligand exchange, anti-b2m ELISA; grade: exchange yield >=75%. This is another data set of the same source.
The target in experiment [4] is HLA-A*02 (human). The experiment is described as follows: UV-ligand exchange, anti-b2m ELISA; grade: exchange yield >=50%.

The molecule ILSPLSVAL came in with a peptide exchange yield in experiment [1] of at least 75%.

In experiment [2], YLSQAADGAKVL had a peptide exchange yield of 20 to 50%.

Take ALVEQGFTV (also called APOB-001): the peptide exchange yield in experiment [3] and in experiment [1] was at least 75% in each case.

In experiment [2], KQMEPLHAV yielded a peptide exchange yield of 20 to 50%.

For RVPPPPQSV, in experiment [2], the peptide exchange yield is 20 to 50%.

In experiment [1], LIGEFLEKV gave a peptide exchange yield of at least 75%.

Turning to KLLDLETERILL, the peptide exchange yield in experiment [1] was at least 75%.

For YLGEEYVKA, in experiment [2], the peptide exchange yield was in the range of 20 to 50%.

Take AMPPPPPQGV: in experiment [2], the peptide exchange yield lay in the range of 20 to 50%.

LTDITKGV returned a peptide exchange yield in experiment [2] of 20 to 50%.

RLIEEIKNV: the peptide exchange yield in experiment [2] was 20 to 50%.

The molecule QLIEVSSPITL showed a peptide exchange yield in experiment [1] of at least 75%.

For the molecule KLLAATVLLL, in experiment [2], the peptide exchange yield was in the range of 20 to 50%.

As for TLITDGMRSV, the peptide exchange yield in experiment [2] lay within 20 to 50%.

FTIPKLYQL gave a peptide exchange yield in experiment [2] of 20 to 50%.

With KLLDNWDSV, the peptide exchange yield in experiment [1] is at least 75%.

Turning to NLIDLDDLYV, the peptide exchange yield in experiment [1] was at least 75%.

Consider VMAPFTMTI (also called APOB-003), for which the peptide exchange yield in experiment [3] and in experiment [1] was at least 75% throughout.

With SLLGGNIRL (also called ACSL3-001), the peptide exchange yield in experiment [3] and in experiment [1] was at least 75% each time.

The molecule FLIAEYFEHV yielded a peptide exchange yield in experiment [2] of 20 to 50%.

For ALASVIKEL (also called IFT81-001), the peptide exchange yield in experiment [3] is at least 75%; in experiment [4] it was 50 to 75%.

For LLYGHTVTV (also called SLC35B2-001), the peptide exchange yield in experiment [3] and in experiment [1] was at least 75% in each case.

The molecule KVLDKVFRA yielded a peptide exchange yield in experiment [1] of at least 75%.

Consider ALNAVRLLV, for which the peptide exchange yield in experiment [1] was at least 75%.

GLAEELVRA registered a peptide exchange yield in experiment [2] of 20 to 50%.

With ALVDTLKFV (also called APOB-002), the peptide exchange yield in experiment [3] and in experiment [1] was at least 75% in each case.

For RIISGLVKV, in experiment [2], the peptide exchange yield lay in the range of 20 to 50%.

ALQDQLVLV displayed a peptide exchange yield in experiment [1] of at least 75%.

On to ALLKVNQEL (also called SAMM-001), for which the peptide exchange yield in experiment [3] and in experiment [1] was at least 75% in each case.

In turn, KIQEILTQV came in with a peptide exchange yield in experiment [1] of at least 75%.

In experiment [2], FLASESLIKQI showed a peptide exchange yield of 20 to 50%.

For the molecule RLMSALTQV, the peptide exchange yield in experiment [2] fell in the range of 20 to 50%.

For SLIDQFFGV (also called USP14-001), in experiment [3], the peptide exchange yield was at least 75%.

KLAEIVKQV (also called MAPKAPK5-001): the peptide exchange yield in experiment [3] and in experiment [1] was at least 75% in each case.

Regarding YLITSVELL (also called ACSL4-001), the peptide exchange yield in experiment [3] and in experiment [1] was at least 75% throughout.

Regarding GVMAGDIYSV (also called ADF-012), the peptide exchange yield in experiment [3] and in experiment [1] was at least 75% in each case.

ALADLTGTVV (also called NCST-001): the peptide exchange yield in experiment [3] and in experiment [1] was at least 75% throughout.

For KLSNVLQQV, in experiment [1], the peptide exchange yield is at least 75%.

In experiment [2], FLDTPIAKV gave a peptide exchange yield of 20 to 50%.

FLAELAYDL (also called GPC3-001): the peptide exchange yield in experiment [3] and in experiment [1] was at least 75% in each case.

In experiment [1], TLPDFRLPEI displayed a peptide exchange yield of at least 75%.

With KLLDEVTYLEA, the peptide exchange yield in experiment [1] was at least 75%.

RLYTMDGITV showed a peptide exchange yield in experiment [2] of 20 to 50%.

Molecule KIAGTNAEV registered a peptide exchange yield in experiment [2] of 20 to 50%.

Turning to VLTEFTREV (also called IPO9-001), the peptide exchange yield in experiment [3] and in experiment [1] was at least 75% each time.

Turning to YLYNNEEQVGL, the peptide exchange yield in experiment [2] lay in the range of 20 to 50%.

Molecule ILADLNLSV showed a peptide exchange yield in experiment [1] of at least 75%.

With FLWTEQAHTV, the peptide exchange yield in experiment [2] was in the range of 20 to 50%.

Molecule KIADFELPTI yielded a peptide exchange yield in experiment [1] of at least 75%.

With TLAQQPTAV, in experiment [2], the peptide exchange yield was 20 to 50%.

RIPAYFVTV: the peptide exchange yield in experiment [2] was in the range of 20 to 50%.

For FLFNTENKLLL (also called IDI1-001), the peptide exchange yield in experiment [3] and in experiment [1] was at least 75% in each case.

In experiment [1], RIAGIRGIQGV displayed a peptide exchange yield of at least 75%.

RLLAKIICL gave a peptide exchange yield in experiment [2] of 20 to 50%.

Regarding SLVGDIGNVNM, in experiment [2], the peptide exchange yield was in the range of 20 to 50%.

As to FLYPEKDEPT, in experiment [2], the peptide exchange yield is 20 to 50%.

The molecule ALQDAIRQL showed a peptide exchange yield in experiment [1] of at least 75%.

TMAKESSIIGV: in experiment [2], the peptide exchange yield lay in the range of 20 to 50%.

Consider RLIDLHTNV, for which the peptide exchange yield in experiment [1] is at least 75%.

In the case of ALLELDEPLVL, in experiment [1], the peptide exchange yield was at least 75%.

In experiment [2], RLIDRIKTV came in with a peptide exchange yield of 20 to 50%.

For FVLPLLGLHEA, the peptide exchange yield in experiment [2] lay in the range of 20 to 50%.
